Target: SARS-CoV-2 spike (S) glycoprotein, artificially-constructed BA.2.75+R346T (SARS-CoV-2), P0DTC2
Assay: cell-based or functional assay

B1: mAb_v2130Vanderbilt_184_20220114_00112 (antibody, V domains shown)
VH: EVQLVESGGGLVKPGGSLRLSCAASGFTFRDVWMSWVRQAPGKGLEWVGRIKSKIDGGTTDYAAPVKGRFTISRDDSKNTLYLQMNSLKTEDTAVYYCTTAGSYYYDTVGPELPEGKFDYWGQGTLVTVSS
VL: not shown
  pseudoviral neutralization IC50: 0.674 µg/mL

— US20230365658A1
